Where a chain is given by its changes, count along the chain named.
Tests used:
Ero1α KO mice = experiment: Intravital microscopy, laser-induced cremaster arteriolar injury, rescue in Ero1α KO mice; type: in vivo, mouse; details: 4 μg/g BW into Ero1α KO mice
Method: FIG. 2 (A-C): DyLight 649-conjugated anti-CD42c and Alexa 488-conjugated rabbit IgG or polyclonal anti-ERO1α antibodies (0.3 μg/g body weight [BW]) were injected into wild type (WT) mice for intravital microscopy. Platelet accumulation and extracellular Ero1α were detected at the site of laser-induced cremaster arteriolar injury. FIG. 2A: Representative images. FIG. 2B and FIG. 2C: The median integrated fluorescence intensities of anti-CD42c (F platelet) and anti-ERO1α antibodies (F Ero1α; n=41-43 arterioles in 6 WT mice per group). FIG. 2(D-F): Intravital microscopy with WT control and Ero1α conditional knockout (CKO) and knockout (KO) mice. After laser-induced cremaster arteriolar injury, platelet accumulation and fibrin generation were detected by injection of DyLight 649-conjugated anti-CD42c and Alexa 488-conjugated anti-fibrin antibodies, respectively. FIG. 2D: Representative images. FIG. 2E and FIG. 2F: The median integrated fluorescence intensities of anti-CD42c (F platelet) and anti-fibrin (F fibrin) antibodies (n=36-44 arterioles in 6 mice per group). Quantification of the antibody signal at a different time point after laser injury. FIG. 2G and FIG. 2H: Ero1α KO mice were treated with recombinant wtERO1α or mutant ERO1α (m ERO1a) (Cys94Ser), 4 μg/g BW. After laser injury, platelets and fibrin were detected as described above (n=36-38 arterioles in 6 mice per group). FIG. 2I: The time to occlusion (TTO) was measured by a Doppler blood flow meter in WT control, Ero1α CKO/KO, and β3 KO mice after the application of 6.5% FeCl3 to a carotid artery (n=8-11 mice per group). FIG. 2J and FIG. 2K: After amputating the tail tip (5 mm), tail bleeding times and hemoglobin (Hb) contents were measured in WT control, Ero1α CKO/KO, and β3 KO mice (n=8-9 mice per group). Bars represent the median value. P values were determined by Mann-Whitney U test (FIG. 2E, FIG. 2F, and FIG. 2(1-K)) or ANOVA and Dunn test (FIG. 2G and FIG. 2H).
Intravital microscopy was performed in a mouse model of laser-induced cremaster arteriolar injury as previously described. WT (C57BL/6), littermate WT control, and CKO and KO male mice (8-10 weeks old) were anesthetized with intraperitoneal injection of ketamine and xylazine. The cremaster muscle was exteriorized and superfused with 37° C. bicarbonate-buffered saline throughout the experiment. Arteriolar wall injury was induced by laser ablation (Photonics Instruments) as previously described. Multiple thrombi were generated in at least 3 to 4 different arterioles of 1 mouse, with new thrombi formed upstream of earlier thrombi to minimize any contribution from thrombi generated earlier in the mouse. […]

Ero1α-null platelets = experiment: Platelet aggregation, Ero1α-null platelets; type: cell-based, mouse; details: 50 μg/mL protein, 0.025 U/mL thrombin
Method: FIG. 7(A-L) is an exemplary embodiment of crucial intracellular ERO1α (endoplasmic reticulum oxidoreductase 1a) for platelet activation, aggregation, and thrombus formation in accordance with the present disclosure. FIG. 7A: Ex vivo platelet thrombus formation in a flow chamber assay. Adherent and aggregated platelets were stained with rhodamine-conjugated phalloidin and imaged by confocal microscopy. Representative images (bar, 10 μm). Surface coverage and thrombus volume were measured (mean±SD, n=4). FIG. 7(B-E): Aggregation and ATP secretion of wild type (WT) and Ero1α-null platelets were induced by 0.025 U/mL thrombin, 0.05 μg/mL CRP (collagen-related peptide), 0.5 μM A23187, or 2.5 μM ADP. […] Quantification graphs of aggregation and ATP secretion are presented as the mean±SD (n=3-4). FIG. 7G and FIG. 7H: P-selectin exposure and αIIbβ3 integrin activation of WT and Ero1α-null platelets were analyzed by flow cytometry. The data are presented as the geometric mean fluorescence intensity (MFI) value (mean±SD, n=3-4). […] P values determined by unpaired Student t test (FIG. 7(A-E) and FIG. 7(G-1)), ANOVA and Dunnett test (FIG. 7F), or Mann-Whitney U test (FIG. 7K and FIG. 7L). […]
FIG. 10(A-E) is an exemplary embodiment of 15E9 not affecting platelet activation and aggregation in accordance with the present disclosure. […] P values determined by unpaired Student's t-test (vs. mIgG1). […]

B1: wtERO1α: recombinant wild-type ERO1α (protein)
chain: EEQPPETAAQRCFCQVSGYLDDCTCDVETIDRFNNYRLFPRLQKLLESDYFRYYKVNLKRPCPFWNDISQCGRRDCAVKPCQSDEVPDGIKSASYKYSEEANNLIEECEQAERLGAVDESLSEETQKAVLQWTKHDDSSDNFCEADDIQSPEAEYVDLLLNPERYTGYKGPDAWKIWNVIYEENCFKPQTIKRPLNPLASGQGTSEENTFYSWLEGLCVEKRAFYRLISGLHASINVHLSARYLLQETWLEKKWGHNITEFQQRFDGILTEGEGPRRLKNLYFLYLIELRALSKVLPFFERPDFQLFTGNKIQDEENKMLLLEILHEIKSFPLHFDENSFFAGDKKEAHKLKEDFRLHFRNISRIMDCVGCFKCRLWGKLQTQGLGTALKILFSEKLIANMPESGPSYEFHLTRQEIVSLFNAFGRISTSVKELENFRNLLQNIH
In the case of B1, the “rescue of fibrin generation” value (Ero1α KO mice) is reported as “minimal rescue effect”, the “rescue of platelet thrombus formation” value (Ero1α KO mice) is reported as “minimal rescue effect” and the “rescue of the defect in Ero1α-null platelet aggregation” value (Ero1α-null platelets) is reported as “did not rescue”.

B2: mERO1α: activity-null ERO1α-Cys94Ser (protein)
chain: B1 chain with C71S
With B2 the “rescue of fibrin generation” value (Ero1α KO mice) was “did not show any effect” and the “rescue of platelet thrombus formation” value (Ero1α KO mice) was “did not show any effect”.

Source: patent US20240366624A1, “METHODS AND COMPOSITIONS FOR TREATING THROMBOTIC DISEASE” (Washington University, priority 2023, published 2024)
